These results are taken from patent US20260201028A1 (SINGAPORE HEALTH SERVICES PTE, published 2026).

This assay deals with human TRPM4 (transient receptor potential melastatin 4) in transfected HEK 293 cells (human, UniProt Q8TD43 1-1214). The experiment in a line: cell-based or functional assay.
human TRPM4 (transient receptor potential melastatin 4) in transfected HEK 293 cells, sequence (Q8TD43 whole entry): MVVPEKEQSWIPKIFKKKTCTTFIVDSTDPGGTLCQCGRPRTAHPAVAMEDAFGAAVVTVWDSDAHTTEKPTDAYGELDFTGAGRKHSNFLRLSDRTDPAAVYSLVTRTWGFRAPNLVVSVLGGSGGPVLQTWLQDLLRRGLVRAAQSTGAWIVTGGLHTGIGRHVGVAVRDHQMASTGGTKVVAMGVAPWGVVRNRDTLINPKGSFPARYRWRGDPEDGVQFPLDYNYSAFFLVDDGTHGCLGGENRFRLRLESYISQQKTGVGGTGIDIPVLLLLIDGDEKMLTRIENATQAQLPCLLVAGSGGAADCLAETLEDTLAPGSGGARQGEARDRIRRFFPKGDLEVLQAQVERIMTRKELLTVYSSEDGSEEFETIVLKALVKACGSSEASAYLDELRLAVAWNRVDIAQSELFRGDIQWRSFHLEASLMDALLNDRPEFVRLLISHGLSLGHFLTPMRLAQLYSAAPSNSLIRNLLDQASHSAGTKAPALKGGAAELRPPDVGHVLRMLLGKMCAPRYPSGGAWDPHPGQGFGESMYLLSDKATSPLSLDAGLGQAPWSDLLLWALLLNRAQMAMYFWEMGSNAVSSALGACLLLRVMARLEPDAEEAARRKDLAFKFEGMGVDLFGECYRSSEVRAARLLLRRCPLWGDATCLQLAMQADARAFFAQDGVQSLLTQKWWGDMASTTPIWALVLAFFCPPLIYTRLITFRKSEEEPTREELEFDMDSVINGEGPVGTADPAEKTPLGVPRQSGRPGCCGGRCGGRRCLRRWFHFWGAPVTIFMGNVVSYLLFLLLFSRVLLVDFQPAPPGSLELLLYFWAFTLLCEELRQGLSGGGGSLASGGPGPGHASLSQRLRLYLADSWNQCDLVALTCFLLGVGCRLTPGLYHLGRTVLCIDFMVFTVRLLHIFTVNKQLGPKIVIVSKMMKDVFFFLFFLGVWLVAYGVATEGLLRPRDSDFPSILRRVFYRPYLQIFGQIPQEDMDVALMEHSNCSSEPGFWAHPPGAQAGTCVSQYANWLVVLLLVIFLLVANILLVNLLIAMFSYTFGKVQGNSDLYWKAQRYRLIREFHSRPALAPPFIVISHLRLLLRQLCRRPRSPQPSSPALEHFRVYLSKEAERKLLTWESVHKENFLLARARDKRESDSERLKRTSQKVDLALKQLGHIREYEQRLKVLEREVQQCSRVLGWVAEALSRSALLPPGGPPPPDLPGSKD

B1: humanized anti-TRPM4 antibody clone A2 (VH1 + VL1) (antibody, human IgG1, kappa, V domains shown)
VH: QVQLQESGPGLVKPSQTLSLTCTVSGYSITSDYAWNWIRQHPGKGLEWIGYLSYSGVTSYNPSLKGRVTISVDTSKNQFSLKLSSVTAADTAVYYCARKGTYYRYEGSYWYFDVWGQGTTVTVSS
VL: DIQMTQSPSSLSASVGDRVTITCHANQNIDVWLSWYQQKPGKAPKLLIYKTSNLHTGVPSRFSGSGSGTDFTFTISSLQPEDIATYYCQQGQSYPLTFGGGTKLEIKR
Take B1: the “IC50, dose-dependent inhibition of hypoxia-induced TRPM4 current increase” value is 1.23 µg/mL.
